The results in this text go back to PMC11237882 (2024).

The target in one assay is ENAH EVH1 (Homo sapiens, UniProt Q8N8S7). The assay can be described thus: BLI. (In general: Biolayer interferometry detects binding as a change in optical thickness at a sensor tip.)
A further assay concerns the target T1, Homer1 EVH1 (Homo sapiens, UniProt Q86YM7).
T1 chain: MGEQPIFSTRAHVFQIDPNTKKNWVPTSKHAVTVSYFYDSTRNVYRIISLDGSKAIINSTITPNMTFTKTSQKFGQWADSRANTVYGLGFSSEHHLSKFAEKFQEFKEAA
As to the kind of experiment: BLI.

Chain of ENAH EVH1 (Q8N8S7 1-111): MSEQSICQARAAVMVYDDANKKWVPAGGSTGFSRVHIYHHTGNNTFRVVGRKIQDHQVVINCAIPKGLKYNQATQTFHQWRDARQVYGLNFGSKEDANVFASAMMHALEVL

FIAHILPAPPDCFPDKVKAF [FLNC] came in with a Kd with ENAH EVH1 of more than 150 µM.

Regarding RPATGYPLPPQIFNESQYRG [SH3BGRL], in the assay with ENAH EVH1, the Kd was more than 150 µM.

Take ALPHPGAAPWPMAFPYQYPPPAHPYNPHPGFPELGY [DVL3P1A]: the dissociation constant (Kd) in the assay with Homer1 EVH1 is more than 150 µM.

In turn, PNHLPLPGPPFSFQNVLVVL [KANK4] registered a Kd with ENAH EVH1 of more than 150 µM.

In the assay with ENAH EVH1, GYPYQYPGPPPCFPPAYQDP [DVL1] had a Kd of more than 150 µM.

One may read the Kd as the free concentration of one partner at which half of the binding sites on the other are occupied at equilibrium, for simple one-to-one binding. Lower therefore signals tighter binding.
